Results from publication PMC9482650, “Quantitative fragmentomics allow affinity mapping of interactomes” (Nature Communications, 2022).

Columns and labels:
Test in all cases: holdup assay
Set-up in all cases: key: below the threshold = too weak to quantify, mostly under pKd 3.1 to 4
[1] = target: T1, CARD11, Q9BXL7
T1 sequence (Q9BXL7 662-765, limits assumed, looked up): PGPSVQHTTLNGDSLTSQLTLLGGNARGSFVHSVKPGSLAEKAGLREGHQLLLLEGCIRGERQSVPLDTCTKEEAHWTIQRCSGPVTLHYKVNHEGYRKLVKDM

[2] = target: DLG1_2, Q12959
[3] = target: DLG4_2, P78352
[4] = target: DLG4_3, P78352
[5] = target: T2, DVL3, Q92997
T2 sequence (Q92997 244-331, limits assumed, looked up): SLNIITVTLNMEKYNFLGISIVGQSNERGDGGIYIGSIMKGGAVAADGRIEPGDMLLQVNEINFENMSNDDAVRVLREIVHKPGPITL

[6] = target: FRMPD2_1, Q68DX3
[7] = target: FRMPD2_3, Q68DX3
[8] = target: GRID2IP_2, A4D2P6
[9] = target: T3, GRIP1_3, Q9Y3R0
T3 sequence (Q9Y3R0 247-346, limits assumed, looked up): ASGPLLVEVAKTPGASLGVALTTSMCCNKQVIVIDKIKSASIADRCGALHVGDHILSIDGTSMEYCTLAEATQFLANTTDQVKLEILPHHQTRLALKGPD

[10] = target: T4, GRIP1_4, Q9Y3R0
T4 sequence (Q9Y3R0 467-571, limits assumed, looked up): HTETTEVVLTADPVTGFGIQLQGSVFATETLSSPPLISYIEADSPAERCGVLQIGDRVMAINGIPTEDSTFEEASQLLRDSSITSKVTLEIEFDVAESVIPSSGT

[11] = target: T5, GRIP1_7, Q9Y3R0
T5 sequence (Q9Y3R0 999-1096, limits assumed, looked up): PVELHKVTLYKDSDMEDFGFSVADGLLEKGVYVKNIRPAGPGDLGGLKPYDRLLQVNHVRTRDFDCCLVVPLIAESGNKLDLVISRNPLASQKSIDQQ

[12] = target: GRIP2_4, Q9C0E4
[13] = target: GRIP2_7, Q9C0E4
[14] = target: HTRA2, O43464
[15] = target: IL16_1, Q14005
[16] = target: IL16_3, Q14005
[17] = target: Inadl_2, Q8NI35
[18] = target: T6, LIN7A, O14910
T6 sequence (O14910 103-200, limits assumed, looked up): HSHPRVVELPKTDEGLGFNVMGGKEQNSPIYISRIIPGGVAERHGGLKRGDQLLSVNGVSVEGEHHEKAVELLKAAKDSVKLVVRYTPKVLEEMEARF

[19] = target: MAGI1_2, Q96QZ7
[20] = target: MAST1, Q9Y2H9
[21] = target: T7, MPP7, Q5T2T1
T7 sequence (Q5T2T1 134-230, limits assumed, looked up): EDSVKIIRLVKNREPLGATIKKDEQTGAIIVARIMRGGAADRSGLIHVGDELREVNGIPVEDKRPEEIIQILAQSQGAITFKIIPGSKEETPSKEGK

[22] = target: NHERF4_1, Q86UT5-2
[23] = target: NHERF4_2, Q86UT5
[24] = target: NHERF4_4, Q86UT5
[25] = target: T8, PDZD7_3, Q9H5P4
T8 sequence (Q9H5P4 857-944, limits assumed, looked up): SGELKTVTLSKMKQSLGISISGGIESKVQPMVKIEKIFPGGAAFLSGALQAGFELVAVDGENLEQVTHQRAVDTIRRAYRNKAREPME

[26] = target: T9, SNTG2, Q9NY99
T9 sequence (Q9NY99 68-166, limits assumed, looked up): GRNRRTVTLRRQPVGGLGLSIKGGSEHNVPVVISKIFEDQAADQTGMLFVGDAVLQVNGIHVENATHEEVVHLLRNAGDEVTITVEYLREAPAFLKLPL

[27] = target: SNX27, Q96L92
[28] = target: T10, SYNJ2BP, P57105
T10 sequence (P57105 8-110, limits assumed, looked up): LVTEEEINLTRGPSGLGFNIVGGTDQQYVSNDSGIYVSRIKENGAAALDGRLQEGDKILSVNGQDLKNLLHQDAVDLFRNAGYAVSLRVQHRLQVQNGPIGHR

[29] = plain residues with an end cap or a label only (N-terminal biotin on a linker: ahx)
[30] = plain residues with an end cap or a label only (N-terminal biotin on a linker: ado-ado)
[31] = plain residues with an end cap or a label only (N-terminal biotin on a linker: (peg)3)

Chain of GRIP2_7, Q9C0E4 (Q9C0E4 934-1023): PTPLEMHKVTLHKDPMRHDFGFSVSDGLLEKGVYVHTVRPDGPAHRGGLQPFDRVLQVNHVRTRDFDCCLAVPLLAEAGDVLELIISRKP
Chain of Inadl_2, Q8NI35 (Q8NI35 238-335): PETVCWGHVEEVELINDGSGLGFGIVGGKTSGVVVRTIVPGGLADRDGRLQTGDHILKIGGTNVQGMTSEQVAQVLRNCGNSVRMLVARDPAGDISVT
Chain of DLG4_2, P78352 (P78352 155-259): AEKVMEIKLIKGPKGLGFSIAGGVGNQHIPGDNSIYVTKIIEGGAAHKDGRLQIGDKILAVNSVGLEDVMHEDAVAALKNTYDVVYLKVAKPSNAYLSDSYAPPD
Chain of GRIP2_4, Q9C0E4 (Q9C0E4 446-548): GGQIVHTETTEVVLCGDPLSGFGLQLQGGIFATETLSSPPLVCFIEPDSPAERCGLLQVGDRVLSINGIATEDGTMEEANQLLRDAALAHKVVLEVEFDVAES
Chain of MAGI1_2, Q96QZ7 (Q96QZ7 456-580): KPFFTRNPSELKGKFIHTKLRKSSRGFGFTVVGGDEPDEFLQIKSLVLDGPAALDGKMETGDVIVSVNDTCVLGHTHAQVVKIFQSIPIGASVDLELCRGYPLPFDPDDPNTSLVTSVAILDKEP
Chain of FRMPD2_3, Q68DX3 (Q68DX3 1073-1166): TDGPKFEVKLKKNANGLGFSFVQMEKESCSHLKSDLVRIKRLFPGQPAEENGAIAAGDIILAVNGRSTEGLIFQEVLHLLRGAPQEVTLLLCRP
Chain of MAST1, Q9Y2H9 (Q9Y2H9 962-1065): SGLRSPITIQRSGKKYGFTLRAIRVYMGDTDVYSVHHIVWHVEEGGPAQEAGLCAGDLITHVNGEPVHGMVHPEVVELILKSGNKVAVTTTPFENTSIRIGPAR
Chain of DLG1_2, Q12959 (Q12959 314-412): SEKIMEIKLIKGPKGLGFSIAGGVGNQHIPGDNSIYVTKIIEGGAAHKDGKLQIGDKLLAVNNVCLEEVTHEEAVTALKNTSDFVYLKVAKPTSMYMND
Chain of NHERF4_2, Q86UT5 (Q86UT5 220-308): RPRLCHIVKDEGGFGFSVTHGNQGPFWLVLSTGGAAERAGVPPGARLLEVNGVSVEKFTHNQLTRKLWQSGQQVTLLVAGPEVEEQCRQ
Chain of FRMPD2_1, Q68DX3 (Q68DX3 770-861): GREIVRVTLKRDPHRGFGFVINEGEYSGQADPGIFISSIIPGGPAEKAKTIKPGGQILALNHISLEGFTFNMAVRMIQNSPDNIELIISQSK
Chain of DLG4_3, P78352 (P78352 306-403): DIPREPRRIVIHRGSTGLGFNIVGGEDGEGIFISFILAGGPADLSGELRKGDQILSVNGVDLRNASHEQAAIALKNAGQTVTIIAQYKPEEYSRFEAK
Chain of GRID2IP_2, A4D2P6 (A4D2P6 272-370): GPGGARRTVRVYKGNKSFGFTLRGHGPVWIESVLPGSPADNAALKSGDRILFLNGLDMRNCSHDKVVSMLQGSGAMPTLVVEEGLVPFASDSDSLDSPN
Chain of NHERF4_4, Q86UT5 (Q86UT5 464-550): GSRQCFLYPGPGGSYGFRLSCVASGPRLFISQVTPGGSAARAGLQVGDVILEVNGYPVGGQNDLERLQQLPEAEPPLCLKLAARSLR
Chain of IL16_1, Q14005 (Q14005 210-306): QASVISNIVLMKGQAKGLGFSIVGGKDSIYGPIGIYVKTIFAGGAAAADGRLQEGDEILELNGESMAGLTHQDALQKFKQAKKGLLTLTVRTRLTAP
Chain of IL16_3, Q14005 (Q14005 1107-1207): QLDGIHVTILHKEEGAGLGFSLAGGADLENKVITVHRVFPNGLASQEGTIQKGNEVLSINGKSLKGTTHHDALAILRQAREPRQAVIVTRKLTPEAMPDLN
Chain of HTRA2, O43464 (O43464 355-458): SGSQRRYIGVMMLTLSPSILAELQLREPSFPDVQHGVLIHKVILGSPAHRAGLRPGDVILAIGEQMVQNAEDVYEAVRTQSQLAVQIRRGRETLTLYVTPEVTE
Chain of NHERF4_1, Q86UT5-2 (Q86UT5 other isoform, or with tags, fused parts or gaps): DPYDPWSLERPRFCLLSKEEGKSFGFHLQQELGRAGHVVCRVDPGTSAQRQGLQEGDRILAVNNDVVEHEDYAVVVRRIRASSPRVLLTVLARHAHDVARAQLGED

Binder: QDEKVKESYV [ABCA1, O95477]
- pKd [1, 29]: below the threshold
- pKd [2, 29]: 5.09
- pKd [3, 29]: 5.25
- pKd [4, 29]: 3.78
- pKd [5, 29]: 3.7
- pKd [6, 29]: 3.53
- pKd [7, 29]: 3.9
- pKd [8, 29]: 3.97
- pKd [9, 29]: below the threshold
- pKd [10, 29]: below the threshold
- pKd [11, 29]: 3.49
- pKd [12, 29]: below the threshold
- pKd [13, 29]: 3.59
- pKd [14, 29]: below the threshold
- pKd [15, 29]: 4.91
- pKd [16, 29]: below the threshold
- pKd [17, 29]: 3.93
- pKd [18, 29]: 3.89
- pKd [19, 29]: 4.03
- pKd [20, 29]: 4.16
- pKd [21, 29]: below the threshold
- pKd [22, 29]: 3.48
- pKd [23, 29]: below the threshold
- pKd [24, 29]: below the threshold
- pKd [25, 29]: 5.35
- pKd [26, 29]: 5.06
- pKd [27, 29]: 5.63
- pKd [28, 29]: 5.22

Binder: ARSAAASNYV [CLDN4, O14493]
- pKd [1, 30]: below the threshold
- pKd [2, 30]: below the threshold
- pKd [3, 30]: below the threshold
- pKd [4, 30]: below the threshold
- pKd [5, 30]: 3.66
- pKd [6, 30]: below the threshold
- pKd [7, 30]: below the threshold
- pKd [8, 30]: 3.56
- pKd [9, 30]: below the threshold
- pKd [10, 30]: below the threshold
- pKd [11, 30]: below the threshold
- pKd [12, 30]: below the threshold
- pKd [13, 30]: below the threshold
- pKd [14, 30]: below the threshold
- pKd [15, 30]: below the threshold
- pKd [16, 30]: below the threshold
- pKd [17, 30]: below the threshold
- pKd [18, 30]: below the threshold
- pKd [19, 30]: below the threshold
- pKd [20, 30]: 3.66
- pKd [21, 30]: below the threshold
- pKd [22, 30]: 3.7
- pKd [23, 30]: below the threshold
- pKd [24, 30]: 3.92
- pKd [25, 30]: below the threshold
- pKd [26, 30]: below the threshold
- pKd [27, 30]: 3.53
- pKd [28, 30]: 3.85

Binder: QRPYRRGSEI [KCNJ18, B7U540]
- pKd [1, 30]: below the threshold
- pKd [2, 30]: 3.51
- pKd [3, 30]: 3.66
- pKd [4, 30]: below the threshold
- pKd [5, 30]: below the threshold
- pKd [6, 30]: below the threshold
- pKd [7, 30]: below the threshold
- pKd [8, 30]: 3.71
- pKd [9, 30]: below the threshold
- pKd [10, 30]: below the threshold
- pKd [11, 30]: below the threshold
- pKd [12, 30]: below the threshold
- pKd [13, 30]: below the threshold
- pKd [14, 30]: below the threshold
- pKd [15, 30]: 3.61
- pKd [16, 30]: below the threshold
- pKd [17, 30]: below the threshold
- pKd [18, 30]: below the threshold
- pKd [19, 30]: below the threshold
- pKd [20, 30]: below the threshold
- pKd [21, 30]: below the threshold
- pKd [22, 30]: below the threshold
- pKd [23, 30]: below the threshold
- pKd [24, 30]: below the threshold
- pKd [25, 30]: below the threshold
- pKd [26, 30]: below the threshold
- pKd [27, 30]: below the threshold
- pKd [28, 30]: 4.91

Binder: RYEDTTLVEDTVL [WNV-NS5, Q9Q6P4]
- pKd [1, 31]: below the threshold
- pKd [2, 31]: 3.77
- pKd [3, 31]: 3.7
- pKd [4, 31]: below the threshold
- pKd [5, 31]: below the threshold
- pKd [6, 31]: below the threshold
- pKd [7, 31]: below the threshold
- pKd [8, 31]: 3.72
- pKd [9, 31]: below the threshold
- pKd [10, 31]: below the threshold
- pKd [11, 31]: below the threshold
- pKd [12, 31]: below the threshold
- pKd [13, 31]: below the threshold
- pKd [14, 31]: below the threshold
- pKd [15, 31]: below the threshold
- pKd [16, 31]: below the threshold
- pKd [17, 31]: below the threshold
- pKd [18, 31]: 3.59
- pKd [19, 31]: below the threshold
- pKd [20, 31]: 4.3
- pKd [21, 31]: below the threshold
- pKd [22, 31]: 4.17
- pKd [23, 31]: below the threshold
- pKd [24, 31]: below the threshold
- pKd [25, 31]: 4.54
- pKd [26, 31]: 4
- pKd [27, 31]: 5.38
- pKd [28, 31]: 3.66

Binder: NISYRRESAI [KCNJ4, P48050]
- pKd [1, 30]: below the threshold
- pKd [2, 30]: 4.48
- pKd [3, 30]: 4.17
- pKd [4, 30]: 4.12
- pKd [5, 30]: below the threshold
- pKd [6, 30]: below the threshold
- pKd [7, 30]: below the threshold
- pKd [8, 30]: 3.51
- pKd [9, 30]: below the threshold
- pKd [10, 30]: below the threshold
- pKd [11, 30]: below the threshold
- pKd [12, 30]: below the threshold
- pKd [13, 30]: below the threshold
- pKd [14, 30]: below the threshold
- pKd [15, 30]: 3.55
- pKd [16, 30]: below the threshold
- pKd [17, 30]: below the threshold
- pKd [18, 30]: below the threshold
- pKd [19, 30]: 3.89
- pKd [20, 30]: 4.06
- pKd [21, 30]: below the threshold
- pKd [22, 30]: 3.48
- pKd [23, 30]: below the threshold
- pKd [24, 30]: below the threshold
- pKd [25, 30]: 4.05
- pKd [26, 30]: below the threshold
- pKd [27, 30]: below the threshold
- pKd [28, 30]: 4.84
